Assay results as given in publication PMC4222368, “A human mitochondrial poly(A) polymerase mutation reveals the complexities of post-transcriptional mitochondrial gene expression” (Human Molecular Genetics, 2014).
Changes are numbered by the printed parent chain. In names and notes the source's numbering stands.

B1: human mitochondrial poly(A) polymerase (mtPAP), wild type, residues 44-538 (enzyme, UniProt Q9NVV4 44-538, looked up)
chain: EQPSGSVETGFEDKIPKRRFSEMQNERREQAQRTVLIHCPEKISENKFLKYLSQFGPINNHFFYESFGLYAVVEFCQKESIGSLQNGTHTPSTAMETAIPFRSRFFNLKLKNQTSERSRVRSSNQLPRSNKQLFELLCYAESIDDQLNTLLKEFQLTEENTKLRYLTCSLIEDMAAAYFPDCIVRPFGSSVNTFGKLGCDLDMFLDLDETRNLSAHKISGNFLMEFQVKNVPSERIATQKILSVLGECLDHFGPGCVGVQKILNARCPLVRFSHQASGFQCDLTTNNRIALTSSELLYIYGALDSRVRALVFSVRCWARAHSLTSSIPGAWITNFSLTMMVIFFLQRRSPPILPTLDSLKTLADAEDKCVIEGNNCTFVRDLSRIKPSQNTETLELLLKEFFEYFGNFAFDKNSINIRQGREQNKPDSSPLYIQNPFETSLNISKNVSQSQLQKFVDLARESAWILQQEDTDRPSISSNRPWGLVSLLLPSAPNR
notes: human mitochondrial poly(A) polymerase (MTPAP, formerly PAPD1), residues 44-538, in pET28a; also called wild-type mtPAP; WT
B2: human mitochondrial poly(A) polymerase (mtPAP), p.N478D mutant, residues 44-538 (enzyme, UniProt Q9NVV4 44-538, looked up)
chain: B1 chain with N435D
notes: human mitochondrial poly(A) polymerase (MTPAP), residues 44-538, in pET28a, with the patient mutation p.N478D (c.1432A>G) made with the QuikChange kit; The mutation occurs in patients (spastic ataxia with optic atrophy); also called p.N478D mtPAP; mutant mtPAP

Target: the molecule itself
Test: SEC; gel filtration analysis of wild-type and mutant mtPAP isolated to electrophoretic purity

Protein	stoichiometry N
B1	2
B2	2
